Test results reported in publication PMC4838387, “PolDIP2 interacts with human PrimPol and enhances its DNA polymerase activities”.

What was measured:
PrimPol^1–354 (human) = target: T1, PrimPol^1–354 (human) (UniProt Q96LW4)
T1 sequence: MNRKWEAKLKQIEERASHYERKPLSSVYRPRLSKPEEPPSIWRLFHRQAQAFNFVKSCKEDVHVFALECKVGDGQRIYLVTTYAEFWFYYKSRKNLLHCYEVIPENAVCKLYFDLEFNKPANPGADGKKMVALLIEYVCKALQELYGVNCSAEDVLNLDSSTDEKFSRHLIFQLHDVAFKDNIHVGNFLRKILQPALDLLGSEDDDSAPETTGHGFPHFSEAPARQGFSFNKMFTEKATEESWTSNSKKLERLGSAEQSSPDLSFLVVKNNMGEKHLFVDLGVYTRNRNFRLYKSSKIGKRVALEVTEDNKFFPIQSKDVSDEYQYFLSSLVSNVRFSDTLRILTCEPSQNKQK

[1] = target: T2, full-length human PrimPol (human) (UniProt Q96LW4)
T2 sequence: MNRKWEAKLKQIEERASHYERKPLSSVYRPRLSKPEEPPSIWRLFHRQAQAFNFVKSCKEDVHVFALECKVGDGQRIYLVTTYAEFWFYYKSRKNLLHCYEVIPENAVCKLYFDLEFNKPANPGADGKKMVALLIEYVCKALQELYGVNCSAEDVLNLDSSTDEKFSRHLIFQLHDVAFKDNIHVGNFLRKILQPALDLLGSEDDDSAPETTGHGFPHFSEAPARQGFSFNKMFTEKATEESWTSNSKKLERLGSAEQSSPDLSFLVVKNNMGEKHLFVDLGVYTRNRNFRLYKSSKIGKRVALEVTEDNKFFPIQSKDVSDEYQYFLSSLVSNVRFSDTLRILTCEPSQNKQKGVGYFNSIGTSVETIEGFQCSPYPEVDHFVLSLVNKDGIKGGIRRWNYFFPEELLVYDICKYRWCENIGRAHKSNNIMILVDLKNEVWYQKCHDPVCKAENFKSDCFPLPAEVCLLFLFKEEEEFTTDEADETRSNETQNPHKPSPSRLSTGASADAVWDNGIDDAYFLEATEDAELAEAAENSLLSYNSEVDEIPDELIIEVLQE

[2] = target: T3, PrimPol24-354 (AEP catalytic domain) (human, UniProt Q96LW4 24-354); test: EMSA; PrimPol 0.05-1 uM, 10 mM Mg2+, no PolDIP2; EMSA: 10 mM Bis-Tris-propane-HCl pH 7.0, 10 mM MgCl2, 100 uM DTT, 20 nM DNA; 5% native PAGE, 0.5x TBE; binding temperature not stated; conditions: protein: recombinant; label: 5'-HEX on primer; 3'-biotin on template; 20 bp duplex; template 5' overhang 77 nt
T3 sequence: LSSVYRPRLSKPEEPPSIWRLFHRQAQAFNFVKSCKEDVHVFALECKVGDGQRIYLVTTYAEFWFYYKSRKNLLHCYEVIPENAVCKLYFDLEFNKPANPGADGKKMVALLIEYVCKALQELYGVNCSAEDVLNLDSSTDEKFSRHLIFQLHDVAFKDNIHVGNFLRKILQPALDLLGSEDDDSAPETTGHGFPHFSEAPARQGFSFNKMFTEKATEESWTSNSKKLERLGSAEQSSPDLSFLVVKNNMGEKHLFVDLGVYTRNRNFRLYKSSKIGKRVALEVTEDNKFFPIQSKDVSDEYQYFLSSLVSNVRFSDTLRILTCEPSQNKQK

PolDIP2 (untagged) = target: T4, PolDIP2 (untagged) (UniProt Q9Y2S7 1-368); test: EMSA; PolDIP2 alone (100 nM in Fig 2A), 10 mM Mg2+; EMSA: 10 mM Bis-Tris-propane-HCl pH 7.0, 10 mM MgCl2, 100 uM DTT, 20 nM DNA; 5% native PAGE, 0.5x TBE; binding temperature not stated; conditions: protein: recombinant; tags: none (GST cleaved with PreScission protease); label: 5'-HEX on primer; 3'-biotin on template; 20 bp duplex; template 5' overhang 77 nt
T4 sequence: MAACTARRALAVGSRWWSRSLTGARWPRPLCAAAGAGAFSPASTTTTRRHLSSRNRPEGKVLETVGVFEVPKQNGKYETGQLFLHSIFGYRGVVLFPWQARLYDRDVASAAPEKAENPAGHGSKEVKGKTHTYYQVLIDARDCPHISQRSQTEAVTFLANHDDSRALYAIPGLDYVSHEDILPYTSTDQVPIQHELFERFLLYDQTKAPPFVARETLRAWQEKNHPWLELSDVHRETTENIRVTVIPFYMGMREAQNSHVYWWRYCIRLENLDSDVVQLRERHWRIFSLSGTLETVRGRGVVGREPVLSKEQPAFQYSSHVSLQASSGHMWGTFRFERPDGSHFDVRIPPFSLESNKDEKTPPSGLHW

B1: GST-PolDIP2 (natural protein)
chain: SSRNRPEGKVLETVGVFEVPKQNGKYETGQLFLHSIFGYRGVVLFPWQARLYDRDVASAAPEKAENPAGHGSKEVKGKTHTYYQVLIDARDCPHISQRSQTEAVTFLANHDDSRALYAIPGLDYVSHEDILPYTSTDQVPIQHELFERFLLYDQTKAPPFVARETLRAWQEKNHPWLELSDVHRETTENIRVTVIPFYMGMREAQNSHVYWWRYCIRLENLDSDVVQLRERHWRIFSLSGTLETVRGRGVVGREPVLSKEQPAFQYSSHVSLQASSGHMWGTFRFERPDGSHFDVRIPPFSLESNKDEKTPPSGLHW
In the case of B1, the K half of the stimulation of primer extension by PrimPol 1-354 (20 nM) on 20/50-mer DNA, GST-PolDIP2 0-120 nM (PrimPol^1–354 (human)) is reported as 33.9 nM and the K half of the stimulation of primer extension by PrimPol (20 nM) on 20/50-mer DNA, GST-PolDIP2 0-120 nM [1] is reported as 41 nM.

B2: 20/97-mer primer/template (HP-20 / ND-97) (mixed)
DNA 1: TGTCGTCTGTTCGGTCGTTC
DNA 2: ACCGCGAACTTGAATTCTAGTTCAGTCTAAATGCTCTCAAGCACTGAGCAATTCACAACATATGGCTTTCGATTACCGAACGACCGAACAGACGACA
B2: binds [2]; no binding (PolDIP2 (untagged)).
